This is an account of results in article PMC5179001.

In the data set the test system is RovA (Yersinia pseudotuberculosis (YPIII?)). Put plainly: EMSA. Particulars: […]) at 25 C or 37 C, buffer. On the technique in general: In EMSA bound probe runs differently from free probe, usually more slowly.

Take “rovA promoter fragment BS II (repressing site)”: the K half amounted to 40.7 nM.
“rovA promoter fragment BS I (activating site)” showed a K half of 6.01 nM.
